Series [1] deals with T1, His-tagged full-length C-terminal cytoplasmic domain of BAP29 (residues 125-237) (Homo sapiens (Human), UniProt Q9UHQ4).
T1 chain: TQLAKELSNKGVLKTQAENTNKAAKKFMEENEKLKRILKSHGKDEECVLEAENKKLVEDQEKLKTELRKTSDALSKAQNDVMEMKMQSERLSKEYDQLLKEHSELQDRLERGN
As to the kind of experiment: IMAC pull-down.

Series [2] deals with the molecule itself. As to the kind of experiment: CD thermal unfolding against protein concentration; midpoint of thermal unfolding at pH 6.0 with 0.25 µM to 5 µM protein.
The target of the next series is P51572. The experiment in a line: native MS; native ESI MS, 150 mM NH4 acetate pH 7, 1.24 mg/mL further diluted in 15% acetonitrile and 5% 2-propanol, LTQ-Orbitrap Velos.
Series [3] deals with the molecule itself. As to the kind of experiment: SEC; calibrated gel filtration, Superdex 200, 10-400 µM protein, 20 mM Na-P pH 7.0, 150 mM NaCl, 0.1 mM TCEP; Stoke's radius compared with radii of gyration of dimer and tetramer.
The target of series [4] is T2, His-tagged full-length C-terminal cytoplasmic domain of BAP31 (residues 124-242) (Homo sapiens (Human), UniProt P51572).
T2 chain: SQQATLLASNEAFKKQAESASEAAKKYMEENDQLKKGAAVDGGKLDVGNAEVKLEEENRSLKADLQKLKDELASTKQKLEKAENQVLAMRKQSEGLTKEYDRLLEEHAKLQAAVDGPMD
The experiment in a line: IMAC pull-down.

The target in series [5] is T3, BAP31 full-length C-terminal cytoplasmic region (residues 124-242), untagged (Homo sapiens (Human), UniProt P51572).
T3 chain: T2 chain
The experiment in a line: analytical gel filtration.

Series [6] concerns the molecule itself. As to the kind of experiment: crystal structure; twinned P3_(2)21 form, selenomethionine labeled protein, crystal grown at 19 °C in 100 mM Na citrate pH 4.2, 33% PEG 400, 200 mM LiSO4.

From paper PMC3742741 (PLoS ONE, 2013) come the findings set out here.

Square brackets hold non-standard residues; d marks the D form. SeMet = C[Se]CC[C@H](N)C(=O)O

B1: BAP31 full-length C-terminal cytoplasmic region (residues 124-242), untagged (domain or fragment, human, UniProt P51572 124-242, looked up)
chain: T2 chain
notes: BAP31, human, UniProt P51572, C-terminal cytoplasmic region, residues 124-242; also called BAP31 Cyt; BAP31 full-length cytoplasmic; source: E. coli BL21(DE3) Rosetta 2, purified (IMAC, TEV cleavage, reverse IMAC, gel filtration); not shown: His6, N-terminal, cleaved
Regarding B1, the binding result is listed as “no binding” in series [1] and “binds” in series [2].

B2: BAP31 vDED (variant of death effector domain of human BAP31, residues 168-233), untagged (domain or fragment, UniProt P51572 168-233, looked up)
chain: LDVGNAEVKLEEENRSLKADLQKLKDELASTKQKLEKAENQVLAMRKQSEGLTKEYDRLLEEHAKL
notes: BAP31, human, UniProt P51572, vDED domain, residues 168-233; Vector pNIC28-Bsa4; also called vDED domain of BAP31; source: E. coli BL21(DE3) Rosetta 2, purified (IMAC, TEV cleavage, reverse IMAC, gel filtration); not shown: His6, N-terminal, cleaved
Consider B2, for which the “dimer peak height relative to the monomer peak” value in the series with P51572 was ≥35% of the monomer peak height. Also, the “stoichiometry N” value in series [3] stood at 2.

B3: BAP29 full-length C-terminal cytoplasmic region (residues 125-237), untagged (protein)
chain: T1 chain
For B3, the binding result in series [4] and in series [5] was “no binding” throughout.

B4: Selenomethionine labeled BAP31 vDED (residues 168-233), untagged (domain or fragment, human, UniProt P51572 168-233, looked up)
chain: LDVGNAEVKLEEENRSLKADLQKLKDELASTKQKLEKAENQVLA[SeMet]RKQSEGLTKEYDRLLEEHAKL
notes: BAP31, human, UniProt P51572, vDED domain, residues 168-233; Same construct as m1, with selenomethionine; used for the P3_(2)21 crystal form at pH 4.2 (residues 169-220 modeled); also called BAP31 vDED acidic pH (P3_(2)21 form); source: E. coli BL21(DE3) Rosetta 2 grown in minimal medium, purified as the native protein with 2 mM TCEP; not shown: His6, N-terminal, cleaved
As for B4, in series [6], the binding result is listed as “binds”.
